For this test, the target named is FcRn-µ2m fusion protein (human β2m fused by (Gly4Ser)3 to the extracellular domain of human FcRn, His-tagged) (human) (UniProt P61769). As to the kind of experiment: ELISA on coated FcRn-β2m fusion, pH 6; KD estimated by saturation binding fit.
Sequence of UniProt P61769 (P61769 other isoform, or with tags, fused parts or gaps limits assumed): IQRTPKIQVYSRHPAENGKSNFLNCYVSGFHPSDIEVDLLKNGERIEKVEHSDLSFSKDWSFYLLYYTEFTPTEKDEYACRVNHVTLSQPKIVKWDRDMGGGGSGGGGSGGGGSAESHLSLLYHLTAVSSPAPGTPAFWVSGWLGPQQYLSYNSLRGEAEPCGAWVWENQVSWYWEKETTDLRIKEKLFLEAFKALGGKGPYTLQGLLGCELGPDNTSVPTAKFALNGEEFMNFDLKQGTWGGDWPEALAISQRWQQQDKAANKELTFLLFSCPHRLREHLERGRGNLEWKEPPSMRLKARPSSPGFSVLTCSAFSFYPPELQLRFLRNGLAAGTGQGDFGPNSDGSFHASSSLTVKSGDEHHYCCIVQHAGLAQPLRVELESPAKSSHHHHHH

Regarding Trastuzumab IgG (antibody), the Kd (as a rule, the equilibrium constant for the complex coming apart) was 900 nM.

Source of the values: patent publication US20240076381A1.
